T1: EsCas13d, nuclease-dead (Eubacterium siraeum, UniProt B0MS50, R295A;H300A;R849A;H854A)
T1 sequence: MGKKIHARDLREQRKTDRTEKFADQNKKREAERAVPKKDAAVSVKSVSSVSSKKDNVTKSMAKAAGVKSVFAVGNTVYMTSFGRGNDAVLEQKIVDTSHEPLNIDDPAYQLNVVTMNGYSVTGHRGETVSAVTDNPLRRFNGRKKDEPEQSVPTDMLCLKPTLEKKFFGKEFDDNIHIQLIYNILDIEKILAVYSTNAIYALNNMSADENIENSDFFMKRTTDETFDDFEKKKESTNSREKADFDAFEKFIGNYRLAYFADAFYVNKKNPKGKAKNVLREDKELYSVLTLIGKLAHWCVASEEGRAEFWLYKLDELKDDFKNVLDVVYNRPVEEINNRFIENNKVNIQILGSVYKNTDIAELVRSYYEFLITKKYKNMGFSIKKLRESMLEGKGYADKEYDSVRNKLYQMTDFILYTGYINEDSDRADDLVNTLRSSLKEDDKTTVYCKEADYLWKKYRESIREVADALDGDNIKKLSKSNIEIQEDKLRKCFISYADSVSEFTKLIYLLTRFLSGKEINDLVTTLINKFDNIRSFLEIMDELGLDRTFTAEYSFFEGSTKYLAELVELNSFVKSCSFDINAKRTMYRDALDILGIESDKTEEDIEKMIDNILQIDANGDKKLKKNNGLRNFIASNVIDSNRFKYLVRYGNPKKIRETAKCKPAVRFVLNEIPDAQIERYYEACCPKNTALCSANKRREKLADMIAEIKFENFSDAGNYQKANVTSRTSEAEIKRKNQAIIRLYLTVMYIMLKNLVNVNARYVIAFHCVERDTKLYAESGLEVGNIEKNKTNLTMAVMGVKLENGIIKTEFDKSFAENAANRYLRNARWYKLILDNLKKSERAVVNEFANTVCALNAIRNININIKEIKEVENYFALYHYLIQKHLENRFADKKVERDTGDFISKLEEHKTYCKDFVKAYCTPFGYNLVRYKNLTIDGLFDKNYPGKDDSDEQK

B1: target 3 G4C,C6G (mixed)
RNA 1: CACCCGUGCAAAAUUGCAGGGGUCUAAAACGACCUGAAUAUUUCAGAUCAAA
RNA 2: GGGAAUGGAUCCACAUCUACGAAUUCGUUUUUGAUCUGAAAUAUUGACGUCUGCAGAUCGGAAGAGCACACGU
B2: target 3 U2A,A5C (mixed)
RNA 1: CACCCGUGCAAAAUUGCAGGGGUCUAAAACGACCUGAAUAUUUCAGAUCAAA
RNA 2: GGGAAUGGAUCCACAUCUACGAAUUCGUUUUUGAUCUGAAAUAUUCCGGACUGCAGAUCGGAAGAGCACACGU
B3: target 3 insC 3' of 12,insG 3' of 2 (mixed)
RNA 1: CACCCGUGCAAAAUUGCAGGGGUCUAAAACGACCUGAAUAUUUCAGAUCAAA
RNA 2: GGGAAUGGAUCCACAUCUACGAAUUCGUUUUUGAUCUGAACAUAUUCAGGUGCUGCAGAUCGGAAGAGCACACGU
B4: target 3 insG 3' of 9,insG 3' of 9 (mixed)
RNA 1: CACCCGUGCAAAAUUGCAGGGGUCUAAAACGACCUGAAUAUUUCAGAUCAAA
RNA 2: GGGAAUGGAUCCACAUCUACGAAUUCGUUUUUGAUCUGAAAUAGGUUCAGGUCUGCAGAUCGGAAGAGCACACGU
B5: target 3 insU 3' of 22,insC 3' of 3 (mixed)
RNA 1: CACCCGUGCAAAAUUGCAGGGGUCUAAAACGACCUGAAUAUUUCAGAUCAAA
RNA 2: GGGAAUGGAUCCACAUCUACGAAUUCGUUUUUUGAUCUGAAAUAUUCAGGCUCUGCAGAUCGGAAGAGCACACGU
B6: target 3 insU 3' of 9,insG 3' of 8 (mixed)
RNA 1: CACCCGUGCAAAAUUGCAGGGGUCUAAAACGACCUGAAUAUUUCAGAUCAAA
RNA 2: GGGAAUGGAUCCACAUCUACGAAUUCGUUUUUGAUCUGAAAUAUUGUCAGGUCUGCAGAUCGGAAGAGCACACGU
B7: target 3 insA 3' of 10,insG 3' of 7 (mixed)
RNA 1: CACCCGUGCAAAAUUGCAGGGGUCUAAAACGACCUGAAUAUUUCAGAUCAAA
RNA 2: GGGAAUGGAUCCACAUCUACGAAUUCGUUUUUGAUCUGAAAUAAUUGCAGGUCUGCAGAUCGGAAGAGCACACGU
B8: target 3 insC 3' of 11,insC 3' of 3 (mixed)
RNA 1: CACCCGUGCAAAAUUGCAGGGGUCUAAAACGACCUGAAUAUUUCAGAUCAAA
RNA 2: GGGAAUGGAUCCACAUCUACGAAUUCGUUUUUGAUCUGAAACUAUUCAGGCUCUGCAGAUCGGAAGAGCACACGU
B9: target 3 G3C,A18G (mixed)
RNA 1: CACCCGUGCAAAAUUGCAGGGGUCUAAAACGACCUGAAUAUUUCAGAUCAAA
RNA 2: GGGAAUGGAUCCACAUCUACGAAUUCGUUUUUGGUCUGAAAUAUUCAGCUCUGCAGAUCGGAAGAGCACACGU
B10: target 3 insU 3' of 5,insU 3' of 1 (mixed)
RNA 1: CACCCGUGCAAAAUUGCAGGGGUCUAAAACGACCUGAAUAUUUCAGAUCAAA
RNA 2: GGGAAUGGAUCCACAUCUACGAAUUCGUUUUUGAUCUGAAAUAUUCAUGGUCUUGCAGAUCGGAAGAGCACACGU
B11: target 3 U2G,A11G (mixed)
RNA 1: CACCCGUGCAAAAUUGCAGGGGUCUAAAACGACCUGAAUAUUUCAGAUCAAA
RNA 2: GGGAAUGGAUCCACAUCUACGAAUUCGUUUUUGAUCUGAAGUAUUCAGGGCUGCAGAUCGGAAGAGCACACGU
B12: target 3 insG 3' of 2,insU 3' of 1 (mixed)
RNA 1: CACCCGUGCAAAAUUGCAGGGGUCUAAAACGACCUGAAUAUUUCAGAUCAAA
RNA 2: GGGAAUGGAUCCACAUCUACGAAUUCGUUUUUGAUCUGAAAUAUUCAGGUGCUUGCAGAUCGGAAGAGCACACGU
B13: target 3 A5C,U8G (mixed)
RNA 1: CACCCGUGCAAAAUUGCAGGGGUCUAAAACGACCUGAAUAUUUCAGAUCAAA
RNA 2: GGGAAUGGAUCCACAUCUACGAAUUCGUUUUUGAUCUGAAAUAGUCCGGUCUGCAGAUCGGAAGAGCACACGU
B14: target 3 insC 3' of 5,insU 3' of 5 (mixed)
RNA 1: CACCCGUGCAAAAUUGCAGGGGUCUAAAACGACCUGAAUAUUUCAGAUCAAA
RNA 2: GGGAAUGGAUCCACAUCUACGAAUUCGUUUUUGAUCUGAAAUAUUCACUGGUCUGCAGAUCGGAAGAGCACACGU
B15: target 3 insU 3' of 5,insG 3' of 1 (mixed)
RNA 1: CACCCGUGCAAAAUUGCAGGGGUCUAAAACGACCUGAAUAUUUCAGAUCAAA
RNA 2: GGGAAUGGAUCCACAUCUACGAAUUCGUUUUUGAUCUGAAAUAUUCAUGGUCGUGCAGAUCGGAAGAGCACACGU
B16: target 3 complement block 4-6 (mixed)
RNA 1: CACCCGUGCAAAAUUGCAGGGGUCUAAAACGACCUGAAUAUUUCAGAUCAAA
RNA 2: GGGAAUGGAUCCACAUCUACGAAUUCGUUUUUGAUCUGAAAUAUUGUCGUCUGCAGAUCGGAAGAGCACACGU
B17: target 3 A18G,U22C (mixed)
RNA 1: CACCCGUGCAAAAUUGCAGGGGUCUAAAACGACCUGAAUAUUUCAGAUCAAA
RNA 2: GGGAAUGGAUCCACAUCUACGAAUUCGUUCUUGGUCUGAAAUAUUCAGGUCUGCAGAUCGGAAGAGCACACGU
B18: target 3 A5G,A9G (mixed)
RNA 1: CACCCGUGCAAAAUUGCAGGGGUCUAAAACGACCUGAAUAUUUCAGAUCAAA
RNA 2: GGGAAUGGAUCCACAUCUACGAAUUCGUUUUUGAUCUGAAAUGUUCGGGUCUGCAGAUCGGAAGAGCACACGU
B19: target 3 U2G,G4C (mixed)
RNA 1: CACCCGUGCAAAAUUGCAGGGGUCUAAAACGACCUGAAUAUUUCAGAUCAAA
RNA 2: GGGAAUGGAUCCACAUCUACGAAUUCGUUUUUGAUCUGAAAUAUUCACGGCUGCAGAUCGGAAGAGCACACGU
B20: target 3 insA 3' of 4 (mixed)
RNA 1: CACCCGUGCAAAAUUGCAGGGGUCUAAAACGACCUGAAUAUUUCAGAUCAAA
RNA 2: GGGAAUGGAUCCACAUCUACGAAUUCGUUUUUGAUCUGAAAUAUUCAGAGUCUGCAGAUCGGAAGAGCACACGU
B21: target 3 G4A,A5G (mixed)
RNA 1: CACCCGUGCAAAAUUGCAGGGGUCUAAAACGACCUGAAUAUUUCAGAUCAAA
RNA 2: GGGAAUGGAUCCACAUCUACGAAUUCGUUUUUGAUCUGAAAUAUUCGAGUCUGCAGAUCGGAAGAGCACACGU
B22: target 3 insU 3' of 5,insC 3' of 2 (mixed)
RNA 1: CACCCGUGCAAAAUUGCAGGGGUCUAAAACGACCUGAAUAUUUCAGAUCAAA
RNA 2: GGGAAUGGAUCCACAUCUACGAAUUCGUUUUUGAUCUGAAAUAUUCAUGGUCCUGCAGAUCGGAAGAGCACACGU
B23: target 3 G4C,A5G (mixed)
RNA 1: CACCCGUGCAAAAUUGCAGGGGUCUAAAACGACCUGAAUAUUUCAGAUCAAA
RNA 2: GGGAAUGGAUCCACAUCUACGAAUUCGUUUUUGAUCUGAAAUAUUCGCGUCUGCAGAUCGGAAGAGCACACGU
B24: target 3 insA 3' of 22,insG 3' of 7 (mixed)
RNA 1: CACCCGUGCAAAAUUGCAGGGGUCUAAAACGACCUGAAUAUUUCAGAUCAAA
RNA 2: GGGAAUGGAUCCACAUCUACGAAUUCGUUUAUUGAUCUGAAAUAUUGCAGGUCUGCAGAUCGGAAGAGCACACGU
B25: target 3 insU 3' of 5,insA 3' of 1 (mixed)
RNA 1: CACCCGUGCAAAAUUGCAGGGGUCUAAAACGACCUGAAUAUUUCAGAUCAAA
RNA 2: GGGAAUGGAUCCACAUCUACGAAUUCGUUUUUGAUCUGAAAUAUUCAUGGUCAUGCAGAUCGGAAGAGCACACGU
B26: target 1 C6U,U8G (mixed)
RNA 1: CACCCGUGCAAAAAUGCAGGGGUCUAAAACUGAGCGGAUAACCUCUCUAUGG
RNA 2: GGGAAUGGAUCCACAUCUACGAAUUCGUACCAUAGAGAGGUUAGCUGCUCACCGAGAUCGGAAGAGCACACGU
B27: target 1 C7U,U10G (mixed)
RNA 1: CACCCGUGCAAAAAUGCAGGGGUCUAAAACUGAGCGGAUAACCUCUCUAUGG
RNA 2: GGGAAUGGAUCCACAUCUACGAAUUCGUACCAUAGAGAGGUGAUUCGCUCACCGAGAUCGGAAGAGCACACGU
B28: target 1 U11G,G13C (mixed)
RNA 1: CACCCGUGCAAAAAUGCAGGGGUCUAAAACUGAGCGGAUAACCUCUCUAUGG
RNA 2: GGGAAUGGAUCCACAUCUACGAAUUCGUACCAUAGAGACGGUAUCCGCUCACCGAGAUCGGAAGAGCACACGU

Target: T1, EsCas13d, nuclease-dead
Assay: crRNA (strand 1, pre-loaded); Mg2+; 40 mM Tris-HCl pH 7.5, 150 mM NaCl, 6 mM MgCl2, 1 mM DTT, 0.1% Tween-20, 0.2 mg/ml BSA; 25 C; 10 min per concentration, then washed
Conditions: tags: His6-TwinStrep-SUMO cleaved; N-terminal SNAP kept (SNAP-Surface 488); label: 3' end held by stalled T7 RNA polymerase

Row | Binder | Kd
1 | B1 | 24.1 ± 3.15 nM
2 | B2 | 47.6 ± 10.6 nM
3 | B3 | 94 ± 39.5 nM
4 | B4 | 102 ± 21 nM
5 | B5 | 12.2 ± 1.35 nM
6 | B6 | 82 ± 19 nM
7 | B7 | 73.5 ± 9.5 nM
8 | B8 | 50 ± 6 nM
9 | B9 | 38.7 ± 6.25 nM
10 | B10 | 31 ± 10 nM
11 | B11 | 62.5 ± 12 nM
12 | B12 | 67.5 ± 9 nM
13 | B13 | 74 ± 12 nM
14 | B14 | 5.23 ± 0.375 nM
15 | B15 | 27 ± 4.5 nM
16 | B16 | 23.7 ± 2.45 nM
17 | B17 | 13.8 ± 2 nM
18 | B18 | 73 ± 14 nM
19 | B19 | 3.65 ± 0.55 nM
20 | B20 | 65.5 ± 15 nM
21 | B21 | 19.5 ± 1.7 nM
22 | B22 | 40.5 ± 6 nM
23 | B23 | 14.7 ± 1.1 nM
24 | B24 | 96 ± 32.5 nM
25 | B25 | 36.5 ± 10.5 nM
26 | B26 | 11 ± 0.5 nM
27 | B27 | 11.2 ± 0.5 nM
28 | B28 | ~70 nM
